Experimental data published in patent US20220153796A1.

Assays:
HLA-A*24 (human) = experiment: UV peptide exchange ELISA
HLA-B*44 (human) = experiment: UV peptide exchange ELISA

| Binder | peptide exchange yield (HLA-A*24 (human)) | peptide exchange yield (HLA-B*44 (human)) |
| --- | --- | --- |
| SEGSEPALLHSW |  | 50 to 75% |
| EEVNYINTF |  | 50 to 75% |
| RWLPQKNAAQF | 50 to 75% |  |
| MEVDPIGHVYIF |  | > 75% |
| TWFPKTPMLF | > 75% |  |
| SEPALLHSW |  | 50 to 75% |
| NEVLTYIKF |  | > 75% |
| MYINEVERL | > 75% |  |
| KEGDLGGKQW |  | 50 to 75% |
| GECDVFKEIL |  | 50 to 75% |
| RYLADLPTL | > 75% |  |
| EEIEGKGSFTYF |  | 50 to 75% |
| KYVKVFDKF | > 75% |  |
| LYPEGLRLL | > 75% |  |
| IEFIHPQAF |  | > 75% |
| RFLPSPVVI | > 75% |  |
| QEQDVDLVQKY |  | 20 to 50% |
| KFLGPAEHLTF | > 75% |  |
| VYSDLHAFYY | > 75% |  |
| KYVKDFHKF | > 75% |  |
| FEYDFLLQRI |  | > 75% |
| VEAPGPVHVYW |  | > 75% |
| IYHSHHPTL | 50 to 75% |  |
| ALNPYQYQY |  | 50 to 75% |
| QEMQHFLGL |  | 50 to 75% |

The remaining lines, values ahead:

| peptide exchange yield (HLA-A*24 (human)) | peptide exchange yield (HLA-B*44 (human)) | Binder |
| --- | --- | --- |
| 50 to 75% |  | RYKQDVERF |
|  | 50 to 75% | TEDPTILRI |
|  | 20 to 50% | KELEATKQY |
|  | 50 to 75% | AEMLESVIKNY |
| > 75% |  | VYNDHSIYVW |
|  | > 75% | GEIIMQNNW |
| > 75% |  | TYSKKHFRI |
|  | 50 to 75% | NEHPSNNW |
|  | 50 to 75% | HEFSSPSHL |
|  | 50 to 75% | SEFMQVIF |
|  | 20 to 50% | ASSSGPMRWW |
|  | 50 to 75% | AEIQGNINHV |
| > 75% |  | YYSPLRDLL |
| > 75% |  | TYCQNIKEF |
| 50 to 75% |  | VFQEKHHVI |
|  | 50 to 75% | AETLSTIQI |
|  | 50 to 75% | YEIEARNQVF |
|  | 50 to 75% | EDAQGHIW |
| 50 to 75% |  | NYIVPDKQIF |
|  | > 75% | TENRYCVQL |
|  | 50 to 75% | EEATGQFHVY |
|  | 20 to 50% | MEVPVIKI |
| > 75% |  | VYVGAVNRI |
|  | 50 to 75% | AEQDMRELTY |
|  | 50 to 75% | TDSIHAWTF |
|  | 20 to 50% | KEVDPAGHSY |
|  | > 75% | AEMLERVIKNY |
|  | 20 to 50% | TEFTTVLY |
|  | 20 to 50% | AEDEPAAAHL |
